The results in this text go back to PMC2816219.

The assay deals with F-actin (non-muscle human actin, pre-polymerized in vitro) (human) (UniProt P60709). Briefly: co-sedimentation; constant protein (16 nM GST-ARN127(25), 150 nM GST-Htt exon 1(25)) with increasing F-actin (0-8 µM or 0-16 µM); gels quantified for percent bound; approximate Kd.

“GST-ARN127(25) (from UniProt P10275 1-127) (domain or fragment)”: the Kd was found to be 1 µM. For GST-Htt exon 1(25) (domain or fragment), the dissociation constant Kd was determined as 2 µM.

By Kd is commonly meant the equilibrium constant for the complex coming apart.
